Assay [1] concerns the target T1, CD117 (c-Kit, stem cell factor receptor) on HEL or TF1 human erythroleukemia cells (human, UniProt P10721 26-976).
T1 construct: whole, on cells
Description: flow cytometry on HEL cells; 1 µl/2.10^5 cells. The protocol: (§1) By flow cytometry, the humanized mAb staining was analyzed on HEL CD117 positive cell line. […] No staining was observed on the cell line CEM (CD117 negative, (data not shown).
Background: A flow cytometer gives signals particle by particle.

The target of assay [2] is T1, CD117 (c-Kit, stem cell factor …). The experiment in a line: flow cytometry on HEL cells; 0.1 µl/2.10^5 cells. As to the method: as §1
Assay [3] has the same target. Description: flow cytometry on HEL cells; 10 µl/2.10^5 cells. As to the method:
as §1

Assay [4] shares this target. The experiment in a line: flow cytometry on HEL cells; 100 µl/2.10^5 cells. The protocol:
as §1

T1 sequence (P10721 26-976): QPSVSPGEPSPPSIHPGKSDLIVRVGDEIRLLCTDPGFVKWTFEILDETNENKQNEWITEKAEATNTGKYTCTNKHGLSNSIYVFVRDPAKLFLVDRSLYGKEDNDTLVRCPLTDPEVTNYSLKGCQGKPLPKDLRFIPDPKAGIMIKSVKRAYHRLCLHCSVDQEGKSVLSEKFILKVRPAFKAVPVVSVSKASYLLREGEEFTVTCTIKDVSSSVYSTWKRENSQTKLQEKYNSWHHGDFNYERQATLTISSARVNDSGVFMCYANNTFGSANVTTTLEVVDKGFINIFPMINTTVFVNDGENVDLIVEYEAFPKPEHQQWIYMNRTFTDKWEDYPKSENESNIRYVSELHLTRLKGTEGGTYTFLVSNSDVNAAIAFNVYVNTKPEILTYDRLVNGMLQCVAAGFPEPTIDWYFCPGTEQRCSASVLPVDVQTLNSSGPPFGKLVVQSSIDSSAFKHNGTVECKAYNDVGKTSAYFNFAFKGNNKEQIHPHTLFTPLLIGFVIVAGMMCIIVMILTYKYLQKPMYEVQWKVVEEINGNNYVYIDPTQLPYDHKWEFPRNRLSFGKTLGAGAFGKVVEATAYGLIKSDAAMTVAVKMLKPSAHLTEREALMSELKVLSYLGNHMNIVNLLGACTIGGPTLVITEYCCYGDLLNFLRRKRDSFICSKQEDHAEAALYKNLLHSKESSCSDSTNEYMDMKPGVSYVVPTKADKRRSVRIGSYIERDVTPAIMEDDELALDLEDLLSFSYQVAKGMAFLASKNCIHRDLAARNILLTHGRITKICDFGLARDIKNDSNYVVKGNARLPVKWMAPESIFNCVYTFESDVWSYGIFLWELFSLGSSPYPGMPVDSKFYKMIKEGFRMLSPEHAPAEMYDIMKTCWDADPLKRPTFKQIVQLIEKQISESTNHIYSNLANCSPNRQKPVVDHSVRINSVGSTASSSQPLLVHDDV

B1: ch36-05 chimeric monoclonal antibody (antibody, human IgG1, kappa, V domains shown)
VH: QVQLQQSGAELVKPGAPVKLSCKASGYTFTRYWMNWVKQRPGRGLEWIGRIDPSDSEIHYNQNFKDKATLTVDKSSSTAYIQLSSLTSEDSAVYYCARDYGSDYYAMDYWGQGTSVTVSS
VL: QIVLTQSPAIMSASLGEEITLTCSASSSVSYMHWYQQKSGTSPKLLIYSTSNLTSGVPSRFSGSGSGTFYSLTISSVEAEDAADYYCHQWSSYPFGGGTKLEIKR
notes: Murine VH + human IgG1 Fc; murine VL + human Kappa; also called chR036-05; chR036.05
As for B1, the “% labelled HEL cells” value is 80% in assay [1], 43% in assay [2], 81% in assay [3] and 80% in assay [4]. Moreover, the MFI amounted to 259 in assay [1], 259 in assay [2], 262 in assay [3] and 251 in assay [4].

B2: humanized antibody 36-5 Hz121 (antibody, human IgG1, V domains shown)
VH: QVQLVQSGAEVKKPGASVKVSCKASGYTFTSYWMNWVRQAPGQGLEWMGRIDPSDSEIHYNQKFKGRVTMTVDTSTSTAYMELSSLRSEDTAVYYCARDYGSDYYAMDYWGQGTLVTVSS
VL: QIVLTQSPAFQSVTPGEKVTITCSASQSVSYMHWYQQKSGTSPKLLIYSTSNLTSGVPSRFSGSGSGTDYTLTISSLEAEDAATYYCHQWSSYPFGGGTKVEIK
notes: The variable regions were cloned into vector p3U containing the human IgG1 constant region; also called H-36.5Hz30 + L-36.5Hz31
B2: the “% labelled HEL cells” value is 67% in assay [1], 59% in assay [2], 70% in assay [3] and 73% in assay [4]. Moreover, the MFI in assay [1] was found to be 228; in assay [2], 210; in assay [3] it was 236; in assay [4], 241.

B3: humanized antibody 36-5 Hz114 (antibody, human IgG1, V domains shown)
VH: QVQLVQSGAEVKKPGASVKVSCKASGYTFTSYWMNWVRQAPGQGLEWMGRIDPSDSEIHYNQKFKDKATLTVDKSTSTAYMELSSLRSEDTAVYYCARDYGSDYYAMDYWGQGTLVTVSS
VL: QIVLTQSPAFQSVTPGEKVTITCSASQSVSYMHWYQQKSGTSPKLLIYSTSNLTSGVPSRFSGSGSGTDYTLTISSLEAEDAATYYCHQWSSYPFGGGTKVEIK
notes: The variable regions were cloned into expression vector p3U containing the human IgG1 constant region; also called H-36.5Hz27 + L-36.5Hz31
As to B3, the “% labelled HEL cells” value turned out to be 66% in assay [1], 64% in assay [2], 70% in assay [3] and 74% in assay [4]. For the same molecule, the MFI in assay [1] stood at 228; in assay [2], 225; in assay [3], 136; in assay [4] it was 242.

B4: humanized antibody 36-5 Hz128 (antibody, human IgG1, V domains shown)
VH: QVQLVQSGAEVKKPGASVKVSCKASGYTFTSYWMNWVRQAPGQGLEWIGRIDPSDSEIHYNQKFKGRVTMTVDTSTSTAYMELSSLRSEDTAVYYCARDYGSDYYAMDYWGQGTLVTVSS
VL: QIVLTQSPAFQSVTPGEKVTITCSASQSVSYMHWYQQKSGTSPKLLIYSTSNLTSGVPSRFSGSGSGTDYTLTISSLEAEDAATYYCHQWSSYPFGGGTKVEIK
notes: The variable regions were cloned into vector p3U containing the human IgG1 constant region; also called H-36.5Hz31 + L-36.5Hz31
Take B4: the “% labelled HEL cells” value in assay [1] was determined as 72%; in assay [2], 61%; in assay [3] it was 77%; in assay [4], 94%. Moreover, the MFI amounted to 240 in assay [1], 214 in assay [2], 250 in assay [3] and 291 in assay [4].
